Tests used:
[1] = test system: LAP(Asp105)/GAL4 chimera S105D (/ Saccharomyces cerevisiae); assay: cell_activity; conditions: luciferase relative to LAP(Ser105)/GAL4
[2] = test system: T1, NF-IL6/LAP (wild type, C/EBP beta), P21272-2; assay: cell_activity; conditions: increase in CAT transactivation with PKC alpha plus TPA, HepG2
T1 sequence: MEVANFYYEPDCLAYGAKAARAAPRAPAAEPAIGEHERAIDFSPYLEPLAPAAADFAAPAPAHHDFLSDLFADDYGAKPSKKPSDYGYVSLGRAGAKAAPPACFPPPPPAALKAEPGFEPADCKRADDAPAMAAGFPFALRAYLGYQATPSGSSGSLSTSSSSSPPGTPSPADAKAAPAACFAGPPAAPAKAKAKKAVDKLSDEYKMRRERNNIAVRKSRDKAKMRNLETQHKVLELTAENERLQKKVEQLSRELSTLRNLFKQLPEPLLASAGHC

| Substance | activity [1] | activity [2] |
| --- | --- | --- |
| 5xGAL4-LUC reporter GAL4 sites | 3 fold |  |
| D-CAT reporter (albumin D-site) |  | 5 fold |

From patent US5874209
